B1: 9a_26 5mC (dsDNA)
DNA 1: GGCCAGCCAGTCAGCCGAAGGCTCCATGCTGCTCCCCGCCGCCGGC
DNA 2: GCCGGCGGCGGGGAGCAGCATGGAGCCTTCGGCTGACTGGCTGGCC
modifications: 5mC at strand 1 nt 16 (site position 5, T = 0)
B2: 9a_26 C (dsDNA)
DNA 1: B1 DNA 1
DNA 2: B1 DNA 2

What was measured:
[1] = molecular target: T1, GFP-TALE_9a_26 WT (Xanthomonas axonopodis scaffold …); test: EMSA; 5mC vs C DNA; EMSA: 20 mM Tris pH 8, 50 mM NaCl, 5 mM MgCl2, 5% glycerol; 0.1 pmol TALE + 0.5 pmol duplex in 10 uL; RT 30 min then ice 30 min; gel 0.5x TAE 4 C; GFP readout; conditions: protein: recombinant; tags: N-terminal GFP; C-terminal His6; blunt
[2] = molecular target: T1, GFP-TALE_9a_26 WT; test: EMSA; EMSA: 20 mM Tris pH 8, 50 mM NaCl, 5 mM MgCl2, 5% glycerol; 0.1 pmol TALE + 0.5 pmol duplex in 10 uL; RT 30 min then ice 30 min; gel 0.5x TAE 4 C; GFP readout; conditions: protein: recombinant; tags: N-terminal GFP; C-terminal His6; blunt

| Binder | binding signal [1] | binding result [2] |
| --- | --- | --- |
| B1 | 2 fold C over 5mC selectivity | – |
| B2 | – | binds |

Reference: PMC5678105, “Engineering DNA Backbone Interactions Results in TALE Scaffolds with Enhanced 5-Methylcytosine Selectivity”
